Assay results: the nanobody polyreactivity screen of Harvey et al. (2022)

Test: yeast display, Sf9 membrane polyspecificity reagent, FACS + sequencing; frameworks hold sequencing errors
In short: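 Galactose induction of a Saccharomyces cerevisiae BJ5465 synthetic nanobody display library ran 36–48 hours. The cells were then stained for 1 hour at 4 °C with 10% biotinylated, detergent-solubilized Sf9 membrane reagent, pulled down on streptavidin microbeads and FACS-sorted into low and high (top ~1%) gates on expression and reagent-binding fluorescence. Labels for polyreactivity follow the gate of origin.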

Sequence	polyreactivity (PSR sort gate)
QVQIVESGGGLVQAGGSLRLSCAASGFTFPHNAMGWYRQAPGKERELVAAITSSGGSTYYADSVKGRFTISRDNAKNPVYLEMNSLKPEDTAVYYCAAYWAYGGYESWGQGTQVTVSS	high polyreactivity
QDQLVESGGGLVQAGGSLRLSCAASGSIFDDYAMGWYRQAPRKERELVASISWSGGRTYYADSVKGRFTISRDNAKNTVYLQMNSLKPEDTAVYYCAAALWTGYSWGQGTQVTVSS	low polyreactivity
QVQLVESGGGLVQAGGSLRLSCAASGSTFPYNAMGCDRQAAGKERELVAAISFSGGITTYADSVKGRFTISRDNAKNTVYLQMNSLKPEDTAVYYCNVAYTLHFGYWGQGTQVTVSS	low polyreactivity
QVQLVESGGGLVQAGGSLRLSCAASGSIFYYYAMGWYRQAPGKERELVAAITSRAGDTYYADSVKGRFTISRDNAKNTVYLQMNSLKPEDTAVYYCAADFPAYYDYYYWGQGTQVTVSS	low polyreactivity
QVQLVESGGGLVQAGGSLRLSCAASGFTFRFYAMGWYRQAPGKERELVAAISSSSSSTYYADSVKGRFTISRDNAKNTVYLQMNSLKPEDTAVYYCNAGGYTRGDYWGQGTQVTVSS	high polyreactivity
QVQLVESGGGLVQAGGSLRLSCAASGRIFWNYAMGWYRQAPGKERELVAGISSSDGSTYYADSVKGRFTISRDNAKNTVYFQMNSLKPEDTAVYYCAVDKGGRYHVENYYWGQGTQVTVSS	low polyreactivity
QVQLVESGGGLVQAGGSLRLSCADSGRTFYYYAMGWYRQAPGKERELVASITYYADSVKGRFTISRDNAKNTVYLQMNSLKPVDTAVYYCAKDLYSNDLYRRYDYWGQGTQVTVSS	low polyreactivity
QVQLVESGGGLVQAGGILRLICADSGSTFAQYAMGWYRPAPGKERELVAAISRLGASTYYAYSVKGRFTISRDIAKNTVYLQMNSLKPEDTVVYYCNAVRGEKMGYWGQGTQVTVSS	high polyreactivity
QVHLQESGGGLVQAGGSLRLSCPASGSISRYYDMGWYRQAPGKEREFVAGISGGAITYYADSVKGRFTISRDNAKNTVYLQMNSLKPEDTAVYYCAADTGVYQYHSYWGQGTQVTVSS	low polyreactivity
QVQLVESGGGLVQAGGSLRLSCAASGRIFNWYGMGWYRQAPGKERELVATISSSGDSTYYADSVKGRFTISRDNAKNTVYLQMNSLKPEDTAVFYCAKRARYKFGYWGQGSQVTVSS	high polyreactivity
QVQLVESGGGLVQAGGSLRLSCAASGRTFTRYAMGWYRQPPGKESELVAAISRGGNTNYADSVKGRFTISRDNAKNTVYLQMNSLKPEDTAVYYCARVYGGYSVPSAYGSWGQGTQVTVSS	high polyreactivity
QVQLVESGGGLVQAGGSLRLSCAASGRTFKRNAMGWYRQAPGKERELVAAISSDGRTNYADSVKGRFTISRDNAKNTVYLQMNSLKPEDTAVYYCAASYVLSYGTYYYWGQGTQVTVSS	low polyreactivity
QVQLVESGGGLVQAGGSLRLSCAASGSTFNGYAMGWYRQAPGKERELVAAITSSGSRTYYADSVKGRFTISRDNAKNTVYLQMNSLKPVDTAVYYCNAGKLARTYFRSSSVSPGDYWGQGTQVTVSS	high polyreactivity
QVQLVESVGGLVQAGGSLRLSCAASGIFVDNAMGWYRQAPGTETELVAPITSSTDSTYYADSVKGRFTISRDNAKNTVALQMNSLKPEDTAVYYCAVARPGGFYFLVHYGYGYWGQGTQVTVSS	low polyreactivity
QVQLVESGGGLVQAGGSLRLSCAASGRTFYTNAMGWYRQAPGKERELVASISGSGGSTYYADSVKGRFTISRDNAKNTVYLQMNSLKPEDTAVYYCAADPAPTVEFGKYDYWGQGTQVTVSS	low polyreactivity
QVQLVESGGGLVQAGGSLRLSCAASGRIFTKYAMGWYRQSPGKERELVAAITTSGGSTYYADSVKGRFTISRDNAKNTVYLQMNSLKPEDTAVYYCAARTYHRYDYWGQGTQVTVSS	high polyreactivity
QVQLVESGGGLVQAGGSLRLSCAASGSTFVRNAMGWYRQAPGKERELVAGISTGDNTYYADSVKGRFTISRDNAKNTVYLQMNSLKPEDTAVDYCNATKDFSFGLDYWGQGTQVTVSS	low polyreactivity
QVQLVESGGGLVQAGGSLRLSCAASGFIFGGFTMGWSRQAPGNERELVAAISRSGGSTYYADSVKGRFTISRDNAKNTVYLQMNSLKPEDTAVYYCATLNYYGEVEYWGQGTQVTVSS	high polyreactivity
QVQLVESGGGLVQAGGSLRLSCAASGLIFRRYAMGWYRQAPGKEREFVAAISWSGGSTYYADSVKGRFTISRDNAKNTVYLQMNSLKPEDTAVYYCAARYRFGGIRRYNYWGQGTQVTVSS	high polyreactivity
QVQLVESGGGLVQAGGSLRLSCAASGFTLYGYTMGWSRQAPGKERELVAAITVSGTSTYYADSVKGRFTISRDNAKYTVSLQMNSLKPEDTAVYYCAARPRRRYYGYDSWGQGTQVSVSS	high polyreactivity
QVQLVESGGGLVKAGGSLRLSSAASGRTFFRNAMGWYRQEPGKERELVAVISDNGGTNYADSVKGRFTMSRDNAKNTVYLQLNSLKPEDTAVDYCATPKRRRYPYYYWGLGTQVTVSS	high polyreactivity

Sequence	polyreactivity (PSR sort gate)
QVQLVESGGGLVQAGGSLRLSCSASGSTFYGYAMGWYRQAPGKEWELVAAINWSGGSTYYADSVKGRFTISRDNAKNTVYLQMNSLKPEDTAVYYCNKAWLGSVSRRYYYWGQGTQVTVSS	high polyreactivity
QVQLVESGGGLVQAGGSLRLSCAASGFTFYGYAMGWYRQAPGKEREFVAAISSRGGRTYYADSVKGRFTISRDNAKNTVYLQMNSLKPEDTAVYYCARRRATGRFSLDYWGQGTQVTVSS	high polyreactivity
QVQLVESGGGLVQAGGSLRLSCAASGRTFYVYTMGWYRQAPGKERELVAAITSGGSTNYADSVKGRFTISRDNAKNTVYLQMNSLKPEDTAVYYCAARVSTVFKRYYYCGQGTQVTVSS	high polyreactivity
QVQLVESGGGLVQAGGSLRLSCAASGRIFRFYAMGWYRQAPGKERELVAGITYSGGSTFYADSVKGRFTISRDNAKNTVYLQMNSLKPEDTAVYYCAAVYVPYYWLGRSRGLDYWGQGTQVTVSS	high polyreactivity
QVQLVESGGGLVQAGGSLRLSCAASGRIFYRYAMGWYRQAPGKERELVAAITYSGGSTYYADSVKGRFTISRDNAKNTVYLQMNSLKPEDTAVYYCAAGGRGRPTTPPYGWYKLNYWGQGTQVTVSS	high polyreactivity
QVQLVESGGGLVHAGGSLRLSCAASGNIFVEYAMGWYRQAPGKERELVAAITNSGGRTHYADSVKGRFTISRDNAKNTVYLQMNSLKPEDTAVYYCAAPTKYRSRRYYWGQGTQVTVSS	high polyreactivity
QVQLVESGGGLVQAGGSLRLSCAASGSTFKHYAMGWYRQAPGKERELVAAISERGGSTYYADSVKGRFTISRDNAKNTVYLQMNSLKPEDTAVYYCARRVSRFSKFGYWGQGTQVTVSS	high polyreactivity
QVQLVEACGGLVQAGGSLRLICAASGNIFAYNAMGWYRQAPGKERELVAAISVIGGTTYYADSVKGRFTISRDNAKNTVYLQMNSLKPEDTAVYSCSVDSVQYGGGYERLHELYYWGQGTQVTVSS	low polyreactivity
HVQLVESGGGLVQAGGSLRISCAASGRTFGHYAMGWNRQAPGKQRELVAVISGRNGDSTYYADSVKGRFTISRDNAKNTVYLQMNSLKPVYTAVYYCAAYKPWEYDYWGQGTEVTVSS	low polyreactivity
QVQLVESGGGLVQAGGSLRLSCASSGSTFARNAMGWYRQAPGKERELVAAISWRGGSTYYADSVKGRFTISRDNAKNTVYLQKNSLKPEDTAVYYCAADGAYWRGTGYEYWGQGTQVTVSS	high polyreactivity
QVQLVESGGGLVQAGGSLRLSCAASGRTFRRYAMGWYRQAPGKERELVAVISGGGTYYADSVKGRFTISRDNAKNTVYLQMNSLKPEDTAVYYCATDSYSSLYGYDYWGQGTQVTVSS	high polyreactivity
QVQLVESGGGLVQAGGSVRLICAASGSIFYTYAMGWYRQAPGKERELVAAISKRGGSTYDADSVKGRFTISRDNAKNTVYLQMNSLKPEDTAVYYCAADTQHVYGSNFYYWGQGTQVTVSS	high polyreactivity
QVQLVESGGGLVQAGGSLRLSCAASGGIFVRYAMGWYRQAPGKERELVAAISSSGDRTYYADSVKGRFTISRDNAKNTVYLQMHSLKPEDTAVYYCNADRGHDKVDYWGQATQVTVSS	low polyreactivity
QVQLVESGGGLVQAGGSLRLSCAASGSIFFPNAMGWYRQAPGKERELVAAIRGGTNTYYADSVKGRFTISRDNAKTTVYLQLNSLKPEDTAVYYCAARRSSHWFTYDYWGQGTQVTVSS	high polyreactivity
QVQLVESGGGLVQAGGSLRLSCAASGRTFGTYAMGWYRQAPGKERELVAAITGSGDRTYYADSVKGRFTISRDNAKNTVYLQMNSLKPEDTAVYYCAAYSDRSYGYWGQGTQVTVSS	low polyreactivity
QVQLRESGAGGRQPAPELRGERQYFYWSADGLVSQPPGKEREFVAGIDRGTITNYADSVRGRFTISRDNAKNTVYLQMNSLKPEDTAVYYCNAEYRRRPKLGDEDEYWGHGTQVTVSS	high polyreactivity
QVQLVESGGGLVQAGGSLRISCAASGIIFVWNAIGWYRQAPGKERELVADISWSSGRTYYADSVKGRFTISRDNAKNTVYLQMNSLIPEDTAVYYCATDDFWNVIFYAYYPEFDYWGQGTQVTVSS	low polyreactivity
QDQLVESCGGLVQAGGSLRLICAASGITFRYNAMGWYRQAPGKERELVAAITFSGGSTYYADSVKGRFTISRDNAKNTVYLQMISLKPEDTAVYYCAARKARPPFPHPFDYYWGQGTQVTVSS	low polyreactivity
QVQLVESGGGLVQEGGSLRLSCAASGRTFAVYAMGWYRQAPGKERELVAAITYGGGRTYYADSVKGRFTISRDNAKNTVYLQMNSLKPEDTAVYYCAADYYGTDYDYWGQGTQVTVSS	low polyreactivity
QVQLVESGGGLVQAGGSLRLSCAASGNTFVYYNMGWYRQAPGKERELVAAINWSGGSTYYADSVKGRFTISRDNAKNTVYLQMNSLKPEDTAVYYCAADTSYYPYEYWGQGTQVTVSS	high polyreactivity
